{"source": "patent US20020039573A1", "test_in_all_cases": "cell-based or functional assay", "key": {"[1]": {"biological_target": "HLA-A2 (human)"}, "[2]": {"biological_target": "HLA-B and -C"}, "[3]": {"biological_target": "HLA-A, -B and -C"}}}
{"substance": "monoclonal antibody BB7.2", "values": [{"measurement": "γ-IFN Elispot, ICD-specific CD8+ T cell line on Fibro/ICD stimulators pre-incubated with antibody (50 µg/mL) (Elispot spots per well)", "setting": "[1]", "value": 213}, {"measurement": "γ-IFN Elispot, clone 17D5 on Fibro/ICD stimulators, antibody at 25 µg/mL (Elispot spots per well)", "setting": "[1]", "value": 165}, {"measurement": "γ-IFN Elispot, clone 17D5 on Fibros-H2N stimulators, antibody at 25 µg/mL (Elispot spots per well)", "setting": "[1]", "value": 98}]}
{"substance": "monoclonal antibody BB123.2", "values": [{"measurement": "γ-IFN Elispot, ICD-specific CD8+ T cell line on Fibro/ICD stimulators pre-incubated with antibody (50 µg/mL) (Elispot spots per well)", "setting": "[2]", "value": 5}, {"measurement": "γ-IFN Elispot, clone 17D5 on Fibro/ICD stimulators, antibody at 25 µg/mL (Elispot spots per well)", "setting": "[2]", "value": 1}, {"measurement": "γ-IFN Elispot, clone 17D5 on Fibros-H2N stimulators, antibody at 25 µg/mL (Elispot spots per well)", "setting": "[2]", "value": 0}]}
{"substance": "monoclonal antibody W6/32", "values": [{"measurement": "γ-IFN Elispot, ICD-specific CD8+ T cell line on Fibro/ICD stimulators pre-incubated with antibody (50 µg/mL) (Elispot spots per well)", "setting": "[3]", "value": 4}, {"measurement": "γ-IFN Elispot, clone 17D5 on Fibro/ICD stimulators, antibody at 25 µg/mL (Elispot spots per well)", "setting": "[3]", "value": 3}, {"measurement": "γ-IFN Elispot, clone 17D5 on Fibros-H2N stimulators, antibody at 25 µg/mL (Elispot spots per well)", "setting": "[3]", "value": 0}]}
